Assay results taken from patent US20220017634A1 (DENALI THERAPEUTICS, published 2022).

Experiments:
[1] = target: T1, human transferrin receptor (human TfR) (human, UniProt P02786 89-760, limits assumed); assay: phage ELISA
T1 construct: Recombinant target coated on plates or biotinylated and captured on streptavidin (ELISA, BLI); also called huTfR
Procedure: (§1) Clones were selected from panning outputs and grown in individual wells of 96-well deep-well plates. The clones were either induced for periplasmic expression using autoinduction media (obtained from EMD Millipore) or infected with helper phage for phage-display of the individual Fc variants on phage. The cultures were grown overnight and spun to pellet E. coli. For phage ELISA, phage containing supernatant was used directly. For periplasmic expression, pellets were resuspended in 20% sucrose, followed by dilution at 4:1 with water, and shaken at 4° C. for 1 hour. Plates were spun to pellet the solids and supernatant was used in the ELISA.
(§2) ELISA plates were coated with target, typically at […] overnight, then blocked with 1% BSA before addition of phage or periplasmic extracts. […] The plates were washed again, and then developed with TMB reagent and quenched with 2N sulfuric acid. Absorbance at 450 nm was quantified using a plate reader (BioTek®) and binding curves were plotted using Prism software where applicable. Absorbance signal for tested clones was compared to negative control (phage or paraplasmic extract lacking Fc). In some assays, soluble holo-transferrin was added during the binding step, typically at significant molar excess (greater than 10-fold excess).
(§3) Individual CH2A2 variants were expressed on the surface of phage and assayed for binding to human TfR, cyno TfR, or an irrelevant control by ELISA. Expression of Fc was confirmed by ELISA against anti-Myc antibody 9E10, which bound to the C-terminal c-Myc epitope tag. […] The three clones from group 1 also bound to cyno TfR, whereas the one clone from group 2 (i.e., clone 2A2.16) was specific for human TfR.

[2] = target: cynomolgus transferrin receptor (cyno TfR) (cynomolgus monkey, UniProt H9EXL1 89-760 (rhesus entry)); assay: phage ELISA
Procedure: as §1, §2, §3

T1 sequence (P02786 89-760 limits assumed): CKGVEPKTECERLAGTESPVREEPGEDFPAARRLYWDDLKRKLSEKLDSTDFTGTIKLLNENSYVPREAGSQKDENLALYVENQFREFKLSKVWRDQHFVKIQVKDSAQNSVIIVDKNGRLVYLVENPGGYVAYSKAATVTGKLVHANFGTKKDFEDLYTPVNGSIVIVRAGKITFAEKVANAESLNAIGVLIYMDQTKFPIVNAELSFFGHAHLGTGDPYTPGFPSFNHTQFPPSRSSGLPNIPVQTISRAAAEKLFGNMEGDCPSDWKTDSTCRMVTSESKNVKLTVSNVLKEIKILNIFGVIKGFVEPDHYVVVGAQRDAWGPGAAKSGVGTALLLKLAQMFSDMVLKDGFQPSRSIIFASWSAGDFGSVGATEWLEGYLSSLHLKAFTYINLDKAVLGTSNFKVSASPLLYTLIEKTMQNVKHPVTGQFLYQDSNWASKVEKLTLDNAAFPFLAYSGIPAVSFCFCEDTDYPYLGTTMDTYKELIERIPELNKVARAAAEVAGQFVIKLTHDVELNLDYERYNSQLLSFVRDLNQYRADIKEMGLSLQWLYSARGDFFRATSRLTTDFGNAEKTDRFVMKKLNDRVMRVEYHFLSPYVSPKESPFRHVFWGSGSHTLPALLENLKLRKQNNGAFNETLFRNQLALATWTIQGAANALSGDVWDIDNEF
cynomolgus transferrin receptor (cyno TfR), sequence (chain, as listed by the source): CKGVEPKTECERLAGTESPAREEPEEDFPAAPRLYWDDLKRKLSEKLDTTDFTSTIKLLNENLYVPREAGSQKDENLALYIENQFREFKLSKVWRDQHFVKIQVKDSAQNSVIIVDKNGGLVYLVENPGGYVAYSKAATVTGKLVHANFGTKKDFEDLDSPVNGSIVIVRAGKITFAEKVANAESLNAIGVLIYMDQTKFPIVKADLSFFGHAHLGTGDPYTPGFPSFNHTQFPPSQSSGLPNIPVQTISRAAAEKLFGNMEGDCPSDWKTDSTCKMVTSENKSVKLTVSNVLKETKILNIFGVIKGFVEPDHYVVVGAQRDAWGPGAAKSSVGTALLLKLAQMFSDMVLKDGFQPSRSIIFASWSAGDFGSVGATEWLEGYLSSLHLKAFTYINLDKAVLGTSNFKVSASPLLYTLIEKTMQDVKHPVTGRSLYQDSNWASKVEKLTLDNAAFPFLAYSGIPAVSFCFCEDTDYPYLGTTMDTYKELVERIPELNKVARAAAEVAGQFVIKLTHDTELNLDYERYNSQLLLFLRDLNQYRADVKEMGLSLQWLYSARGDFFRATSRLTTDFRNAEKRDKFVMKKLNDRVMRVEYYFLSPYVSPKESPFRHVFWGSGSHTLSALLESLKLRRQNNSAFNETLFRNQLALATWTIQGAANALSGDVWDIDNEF

B1: Clone CH2A2.4, Fc displayed on phage (designed binder)
chain: APELLGGPSVFLFPPKPKDTLMISRTPEVTCVVVDVSHEDPEVSFEWYVDGVPVRWEWQWPREEQYNSTYRVVSVLTVLHQDWLNGKEYKCKVSNKALPAPIEKTISKAKGQPREPQVYTLPPSRDELTKNQVSLTCLVKGFYPSDIAVEWESNGQPENNYKTTPPVLDSDGSFFLYSKLTVDKSRWQQGNVFSCSVMHEALHNHYTQKSLSLSPGK
notes: As m16
[1]
  binding result: binds

B2: Clone CH2A2.5, Fc displayed on phage (designed binder)
chain: APELLGGPSVFLFPPKPKDTLMISRTPEVTCVVVDVSHEDPEVAFTWYVDGVPVRWEWQNPREEQYNSTYRVVSVLTVLHQDWLNGKEYKCKVSNKALPAPIEKTISKAKGQPREPQVYTLPPSRDELTKNQVSLTCLVKGFYPSDIAVEWESNGQPENNYKTTPPVLDSDGSFFLYSKLTVDKSRWQQGNVFSCSVMHEALHNHYTQKSLSLSPGK
notes: As m16
[1]
  binding result: binds

B3: Clone CH2A2.16, Fc displayed on phage (designed binder)
chain: APELLGGPSVFLFPPKPKDTLMISRTPEVTCVVVDVSHEDPEVWFEWYVDGVFVGVAYDVPREEQYNSTYRVVSVLTVLHQDWLNGKEYKCKVSNKALPAPIEKTISKAKGQPREPQVYTLPPSRDELTKNQVSLTCLVKGFYPSDIAVEWESNGQPENNYKTTPPVLDSDGSFFLYSKLTVDKSRWQQGNVFSCSVMHEALHNHYTQKSLSLSPGK
notes: As m16
[2]
  binding result: no binding
[1]
  binding result: binds

B4: Clone CH2A2.1, Fc displayed on phage (designed binder)
chain: APELLGGPSVFLFPPKPKDTLMISRTPEVTCVVVDVSHEDPEVEFIWYVDGVDVRYEWQLPREEQYNSTYRVVSVLTVLHQDWLNGKEYKCKVSNKALPAPIEKTISKAKGQPREPQVYTLPPSRDELTKNQVSLTCLVKGFYPSDIAVEWESNGQPENNYKTTPPVLDSDGSFFLYSKLTVDKSRWQQGNVFSCSVMHEALHNHYTQKSLSLSPGK
notes: Fc dimer on phage (pIII fusion with c-Myc and 6xHis tags paired with soluble Fc)
[1]
  binding result: binds
